Experimental data reported in patent US8501696.

How the values were obtained:
[1] = biological target: human gp130 on the BAF3 cell surface (human) (UniProt P40189); assay: cell-based or functional assay
[2] = biological target: Hyper-IL-6 (designer cytokine consisting of covalently linked IL-6 and sIL-6R) (human) (UniProt P08887); assay: cell-based or functional assay
Target sequence in this assay (P08887 20-323 limits assumed, chain 1 of 2): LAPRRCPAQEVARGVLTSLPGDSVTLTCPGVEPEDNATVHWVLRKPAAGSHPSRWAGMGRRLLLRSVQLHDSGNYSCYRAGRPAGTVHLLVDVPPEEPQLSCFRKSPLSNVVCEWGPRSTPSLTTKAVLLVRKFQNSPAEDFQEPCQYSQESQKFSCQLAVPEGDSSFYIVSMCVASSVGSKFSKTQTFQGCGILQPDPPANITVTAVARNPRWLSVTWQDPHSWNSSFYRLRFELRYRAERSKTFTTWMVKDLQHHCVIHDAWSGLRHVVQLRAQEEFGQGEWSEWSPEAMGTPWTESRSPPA
Target sequence in this assay (P05231 30-212 limits assumed, chain 2 of 2, further chain): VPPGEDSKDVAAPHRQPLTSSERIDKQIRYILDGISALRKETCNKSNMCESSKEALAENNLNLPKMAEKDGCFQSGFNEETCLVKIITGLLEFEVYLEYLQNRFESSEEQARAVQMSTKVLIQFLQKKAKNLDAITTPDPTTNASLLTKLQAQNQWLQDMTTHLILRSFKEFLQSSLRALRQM

[3] = biological target: human IL-6/sIL-6R complex (interleukin-6 plus soluble interleukin-6 receptor) (human) (UniProt P05231); assay: cell-based or functional assay
human IL-6/sIL-6R complex (interleukin-6 plus soluble interleukin-6 receptor) (human), sequence (P05231 30-212 limits assumed, chain 1 of 2): as the sequence (P05231 30-212 limits assumed, chain 2 of 2, further chain) above
human IL-6/sIL-6R complex (interleukin-6 plus soluble interleukin-6 receptor) (human), sequence (P08887 20-358 limits assumed, chain 2 of 2, further chain): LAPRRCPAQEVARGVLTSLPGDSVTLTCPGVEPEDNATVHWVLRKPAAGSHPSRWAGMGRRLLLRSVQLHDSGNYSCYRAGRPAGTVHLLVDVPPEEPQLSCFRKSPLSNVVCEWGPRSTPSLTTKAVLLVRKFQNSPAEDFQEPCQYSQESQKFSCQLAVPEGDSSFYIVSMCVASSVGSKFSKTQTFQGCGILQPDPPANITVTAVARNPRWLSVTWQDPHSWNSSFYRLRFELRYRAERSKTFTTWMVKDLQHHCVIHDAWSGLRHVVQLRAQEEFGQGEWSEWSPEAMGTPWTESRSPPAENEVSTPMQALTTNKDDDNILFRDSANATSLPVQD

[4] = biological target: Hyper-IL-6 (designer cytokine consisting of covalently linked IL-6 and sIL-6R) (human) (UniProt P08887); assay: SPR, ProteOn XPR36, mutein immobilised, Hyper-IL-6 80 to 2.5 nM in flow, 25 C
Target sequence in this assay (P08887 20-323 limits assumed, chain 1 of 2): as the sequence (P08887 20-323 limits assumed, chain 1 of 2) above
Target sequence in this assay (P05231 30-212 limits assumed, chain 2 of 2, further chain): as the sequence (P05231 30-212 limits assumed, chain 2 of 2, further chain) above

[5] = biological target: Hyper-IL-6 (designer cytokine consisting of covalently linked IL-6 and sIL-6R) (human) (UniProt P08887); assay: SPR; details: Fc fusion
Target sequence in this assay (P08887 20-323, chain 1 of 2): as the sequence (P08887 20-323 limits assumed, chain 1 of 2) above
Target sequence in this assay (P05231 30-212, chain 2 of 2, further chain): as the sequence (P05231 30-212 limits assumed, chain 2 of 2, further chain) above

human gp130 on the BAF3 cell surface (human), sequence (P40189 23-918): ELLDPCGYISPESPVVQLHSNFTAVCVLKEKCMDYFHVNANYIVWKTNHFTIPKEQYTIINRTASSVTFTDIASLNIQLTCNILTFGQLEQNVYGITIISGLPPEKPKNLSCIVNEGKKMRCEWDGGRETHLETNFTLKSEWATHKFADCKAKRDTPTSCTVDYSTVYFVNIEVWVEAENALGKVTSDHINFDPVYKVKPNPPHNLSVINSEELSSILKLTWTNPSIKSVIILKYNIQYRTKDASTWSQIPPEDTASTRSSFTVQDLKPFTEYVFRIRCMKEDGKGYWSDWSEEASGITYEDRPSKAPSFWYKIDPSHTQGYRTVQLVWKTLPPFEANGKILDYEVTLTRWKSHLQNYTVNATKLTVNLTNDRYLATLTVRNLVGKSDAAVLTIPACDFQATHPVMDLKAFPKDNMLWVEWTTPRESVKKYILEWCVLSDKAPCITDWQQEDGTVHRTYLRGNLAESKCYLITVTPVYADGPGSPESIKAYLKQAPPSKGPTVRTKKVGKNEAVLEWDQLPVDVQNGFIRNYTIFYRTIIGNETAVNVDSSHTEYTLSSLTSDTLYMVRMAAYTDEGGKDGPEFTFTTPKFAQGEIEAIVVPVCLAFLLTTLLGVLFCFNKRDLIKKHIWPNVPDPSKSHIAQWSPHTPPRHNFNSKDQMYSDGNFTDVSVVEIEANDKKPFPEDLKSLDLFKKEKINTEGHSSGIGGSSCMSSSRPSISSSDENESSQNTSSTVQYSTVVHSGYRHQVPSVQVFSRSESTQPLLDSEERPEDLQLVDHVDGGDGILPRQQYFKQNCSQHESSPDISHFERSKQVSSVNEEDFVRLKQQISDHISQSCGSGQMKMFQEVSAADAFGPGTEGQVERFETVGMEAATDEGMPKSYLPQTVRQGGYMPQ

With “murine IL-6/sIL-6R complex (from UniProt P08505 25-211; P22272 20-364) (ligand)” the amount needed for the same proliferation signal in BAF3/gp130 cells, against human IL-6/sIL-6R [1] was 3 fold.

In the case of “sgp130Fc triple mutein Thr102Tyr/Gln113Phe/Asn114Leu (T102Y/Q113F/N114L) (from UniProt P40189 23-619) (Fc fusion)”, the IC50 of inhibition of BAF3/gp130 proliferation, fold lower than wild type sgp130Fc (Cell Titer-Blue assay) [2] is reported as over 3 fold, the IC50 of inhibition of BAF3/gp130 proliferation, fold lower than wild type sgp130Fc (MTS assay) [3] is reported as 3 fold and the fold increase of the affinity constant KD against wild type sgp130Fc [4] is reported as 4 fold.

“sgp130Fc triple mutein Thr102Tyr/Gln113Phe/Asn114Leu (T102Y/Q113F/N114L) (from UniProt P40189 23-619)” gave a Kd [5] of 0.122 nM.
